Consider five molecules from US20260226179A1 (MAB DESIGNS, published 2026).

What all share (test): cell-based or functional assay
The target in test [1] is T1, human soluble IL-6R (human, UniProt P08887 20-357).
T1 sequence: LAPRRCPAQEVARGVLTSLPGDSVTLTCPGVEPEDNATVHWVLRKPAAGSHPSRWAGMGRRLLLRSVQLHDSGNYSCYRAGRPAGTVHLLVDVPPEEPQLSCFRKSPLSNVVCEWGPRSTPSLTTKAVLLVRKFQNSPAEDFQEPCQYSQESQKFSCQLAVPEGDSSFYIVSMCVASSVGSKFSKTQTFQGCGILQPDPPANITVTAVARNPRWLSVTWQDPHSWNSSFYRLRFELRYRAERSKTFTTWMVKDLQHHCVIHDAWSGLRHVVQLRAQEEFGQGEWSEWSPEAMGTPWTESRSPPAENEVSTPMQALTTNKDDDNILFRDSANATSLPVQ

The target of test [2] is T2, human membrane-bound IL-6R subunit alpha (human, UniProt P08887 20-468).
T2 sequence: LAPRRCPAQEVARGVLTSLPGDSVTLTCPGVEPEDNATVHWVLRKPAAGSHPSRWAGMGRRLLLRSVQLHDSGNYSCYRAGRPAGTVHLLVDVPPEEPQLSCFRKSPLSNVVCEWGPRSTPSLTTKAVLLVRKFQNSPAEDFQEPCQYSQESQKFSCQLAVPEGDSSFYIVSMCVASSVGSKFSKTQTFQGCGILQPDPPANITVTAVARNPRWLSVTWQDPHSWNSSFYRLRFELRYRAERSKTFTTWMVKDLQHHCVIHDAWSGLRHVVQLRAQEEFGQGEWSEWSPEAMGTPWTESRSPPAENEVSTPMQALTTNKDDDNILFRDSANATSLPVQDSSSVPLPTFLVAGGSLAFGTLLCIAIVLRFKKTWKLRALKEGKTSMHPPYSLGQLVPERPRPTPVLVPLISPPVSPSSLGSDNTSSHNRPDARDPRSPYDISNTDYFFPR

The target of test [3] is T1, human soluble IL-6R. The source holds these as a separate data set.
In test [4] the target is T2, human membrane-bound IL-6R subunit alpha. This is another data set of the same source.
For test [5], the target named is T1, human soluble IL-6R. The source holds these as a separate data set.
The target of test [6] is T3, human soluble IL-6R (human, UniProt P08887 20-357, limits assumed).
T3 sequence: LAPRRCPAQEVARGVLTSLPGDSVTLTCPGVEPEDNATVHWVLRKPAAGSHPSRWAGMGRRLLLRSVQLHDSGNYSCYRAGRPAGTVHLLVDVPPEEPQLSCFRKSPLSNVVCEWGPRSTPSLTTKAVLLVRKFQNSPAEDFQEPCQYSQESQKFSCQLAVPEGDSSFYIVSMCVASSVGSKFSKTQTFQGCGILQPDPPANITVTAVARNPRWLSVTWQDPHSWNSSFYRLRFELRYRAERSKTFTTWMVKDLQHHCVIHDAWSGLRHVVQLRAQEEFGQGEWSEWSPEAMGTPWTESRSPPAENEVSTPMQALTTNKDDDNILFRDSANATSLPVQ

The target in test [7] is Hyper-IL-6 (recombinant fusion protein consisting of IL-6 and soluble IL-6R).

“And” between values parts separate entries of the source, which are not always exact repeats. Equal values may be shown once.

B1: candidate anti-IL-6R Fab clone 12 (Fab, V domains shown)
VH: EVKLMESGGGLVQPGGSLKLSCAASGFTFSNYGMSWVRQTPDKRLEWVANINSNGGSTYYPDSVKGRFTISRDNAQNTLYLQMSSLKSEDTAMYYCTRDGNFVSDYWGQGTTLTVSS
VL: DIVLTQSPASLAVSPGQRATISCRASESVDSYGNSFMNWYQQKPGQPPKLLIYLASNLESGVPARFSGSGSRTDFTLTIDPVEADDAATYYCQQNNEDPYTFGGGTKLEIK
Regarding B1, in the test with human soluble IL-6R [1], the “Proliferation in % (Ba/F3_gp130 cells, IL-6 + sIL-6R = 100%; IL-6 trans signalling; 1% PE)” value was determined as 47.9%. In addition, the “Proliferation in % (Ba/F3_gp130_IL-6R cells, IL-6 + sIL-6R = 100%; combined IL-6 classical and trans signalling; 1% PE)” value in test [2] was 61.6%. Also, in the test with human soluble IL-6R [3], the “Classical:trans signalling ratio proliferation” value came to 1.3 ratio. Further, in test [4], the “Residual STAT3 phosphorylation in HEK293_IL-6R (IL-6 + sIL-6R; combined classical and trans signalling; 1% PE)” value was 90%. In the test with human soluble IL-6R [5], the “Classical:trans signalling ratio intracellular signalling” value came out at 2.1 ratio and the “Residual STAT3 phosphorylation in HEK293 (IL-6 + sIL-6R; IL-6 trans signalling; 1% PE)” value came out at 42%.

B2: candidate anti-IL-6R Fab clone 20 (Fab, V domains shown)
VH: EVKLMESGGGLVQPGGSLKLSCAASGFTFSNYGMSWVRQTPDKRLELVAIINSNGGSTYYPDSVKGRFTISRDNAKNTLYLQMSSLKSEDTAIYYCARDGNFVSDYWGQGTTLTVSS
VL: DIVLTQSPASLAVSLGQRATISCRASESVDSYGNRFLNWYQQKPGQPPKLLIYLASNLESGVPARFSGSGSRTDFTLTIDPVEADDAATYYCQQNNEDPYTFGGGTKLEIK
Consider B2, for which the “Proliferation in % (Ba/F3_gp130 cells, IL-6 + sIL-6R = 100%; IL-6 trans signalling; 1% PE)” value with human soluble IL-6R [1] amounted to 36.6%. The “Proliferation in % (Ba/F3_gp130_IL-6R cells, IL-6 + sIL-6R = 100%; combined IL-6 classical and trans signalling; 1% PE)” value in test [2] stood at 81.9%. In addition, the “Classical:trans signalling ratio proliferation” value with human soluble IL-6R [3] was 2.2 ratio. Moreover, in test [4], the “Residual STAT3 phosphorylation in HEK293_IL-6R (IL-6 + sIL-6R; combined classical and trans signalling; 1% PE)” value was found to be 97%. In the test with human soluble IL-6R [5], the “Classical:trans signalling ratio intracellular signalling” value came out at 3 ratio and the “Residual STAT3 phosphorylation in HEK293 (IL-6 + sIL-6R; IL-6 trans signalling; 1% PE)” value came to 32%.

B3: anti-IL-6R Fab C20 (purified Fab fragment of C20) (Fab, V domains shown)
VH: EVKLMESGGGLVQPGGSLKLSCAASGFTFSNYGMSWVRQTPDKRLELVAIINSNGGSTYYPDSVKGRFTISRDNAKNTLYLQMSSLKSEDTAIYYCARDGNFVSDYWGQGTTLTVSS
VL: DIVLTQSPASLAVSLGQRATISCRASESVDSYGNRFLNWYQQKPGQPPKLLIYLASNLESGVPARFSGSGSRTDFTLTIDPVEADDAATYYCQQNNEDPYTFGGGTKLEIK
As for B3, the “IC50 of inhibition of proliferation of Ba/F3_gp130 cells induced by 10 ng/ml IL-6 and 200 ng/ml sIL-6R” value in the test with human soluble IL-6R [6] is 159 ng/ml and 3.2 nM. In test [7], the “IC50 of inhibition of proliferation of Ba/F3_gp130 cells induced by 28 ng/ml Hy-IL-6” value was 98 ng/ml and 1.9 nM.

B4: candidate anti-IL-6R Fab clone 07 (Fab, V domains shown)
VH: EVKLVESGGGLVQPGGSLKLSCAASGFTFSSYAMSWVRQTADKRLELVANINSNGGSTYYPDSVKGRFTISRDNAKNTLFLQMSSLKSEDTAMYYCAREGYYTMDYWGQGTSVTVSS
VL: DIVLTQSPASLAVSPGQRATISCRASESVDSYGNSFMNWYQQKPGQPPKLLIYLASNLESGVPARFSGSGSRTDFTLTIDPVEADDAATYYCQQNNEDPYTFGGGTKLEIK
B4: the “Proliferation in % (Ba/F3_gp130 cells, IL-6 + sIL-6R = 100%; IL-6 trans signalling; 1% PE)” value in the test with human soluble IL-6R [1] is 55.7%. Moreover, in test [2], the “Proliferation in % (Ba/F3_gp130_IL-6R cells, IL-6 + sIL-6R = 100%; combined IL-6 classical and trans signalling; 1% PE)” value came to 86.1%. Further, the “Classical:trans signalling ratio proliferation” value with human soluble IL-6R [3] was determined as 1.5 ratio. Also, the “Residual STAT3 phosphorylation in HEK293_IL-6R (IL-6 + sIL-6R; combined classical and trans signalling; 1% PE)” value in test [4] stood at 77%. In the test with human soluble IL-6R [5], the “Classical:trans signalling ratio intracellular signalling” value is 2.8 ratio and the “Residual STAT3 phosphorylation in HEK293 (IL-6 + sIL-6R; IL-6 trans signalling; 1% PE)” value amounted to 28%.

B5: candidate anti-IL-6R Fab clone 19 (Fab, V domains shown)
VH: EVKLMESGGGLVQPGGSLKLSCAASGFTFSNYGMSWVRQTPDKRLELVAIMNSKGGSTYYPDSVMGRFTISRDNAKNTLYLQMSSLKSEDTAMYYCARDGYYTMDYWGQGTSVTVSS
VL: DIVLTQSPASLAVSLGQRATISCRASKSVDSFGNSFMHWYQQKPGQSPRLLIFLASNLESGVPARFSGSGSRTDFTLTIDPVEADDAATYYCQQNNEDPYTFGGGTKLEIK
Turning to B5, the “Proliferation in % (Ba/F3_gp130 cells, IL-6 + sIL-6R = 100%; IL-6 trans signalling; 1% PE)” value with human soluble IL-6R [1] turned out to be 53.3%. The “Proliferation in % (Ba/F3_gp130_IL-6R cells, IL-6 + sIL-6R = 100%; combined IL-6 classical and trans signalling; 1% PE)” value in test [2] was 73.3%. Besides, the “Classical:trans signalling ratio proliferation” value in the test with human soluble IL-6R [3] was determined as 1.4 ratio. Further, the “Residual STAT3 phosphorylation in HEK293_IL-6R (IL-6 + sIL-6R; combined classical and trans signalling; 1% PE)” value in test [4] came to 72%. Further, in the test with human soluble IL-6R [5], the “Classical:trans signalling ratio intracellular signalling” value was 3 ratio and the “Residual STAT3 phosphorylation in HEK293 (IL-6 + sIL-6R; IL-6 trans signalling; 1% PE)” value worked out at 24%.
